# Source: patent publication US20180099057
# Columns and labels:
# [1] = system: T1, oligopeptide sequence GNWPWDWGWDWPWNWG (SEQ ID NO:8) tethering TCPP to the nanoparticle
# T1 sequence: GNWPWDWGWDWPWNWG
# [2] = system: T2, oligopeptide sequence GNwPwDwGwDwPwNwG (SEQ ID NO:9) tethering TCPP to the nanoparticle
# T2 sequence: GNWPWDWGWDWPWNWG
# [3] = system: T3, Cyanine 5.5 linked GR7G peptide (SEQ ID NO:5) on nanoplatform 1 / nanoplatform 2
# T3 sequence: GRRRRRRRG
# [4] = system: T4, oligopeptide sequence GRARQRLRARQG (SEQ ID NO:7) tethering TCPP to the nanoparticle
# T4 sequence: GRARQRLRARQG
# [5] = system: T5, oligopeptide sequence GRRRRRRRG (SEQ ID NO:5) tethering TCPP to the nanoparticle
# T5 sequence: GRRRRRRRG
# tryptophan 2,3-dioxygenase, sequence (P48775 whole entry): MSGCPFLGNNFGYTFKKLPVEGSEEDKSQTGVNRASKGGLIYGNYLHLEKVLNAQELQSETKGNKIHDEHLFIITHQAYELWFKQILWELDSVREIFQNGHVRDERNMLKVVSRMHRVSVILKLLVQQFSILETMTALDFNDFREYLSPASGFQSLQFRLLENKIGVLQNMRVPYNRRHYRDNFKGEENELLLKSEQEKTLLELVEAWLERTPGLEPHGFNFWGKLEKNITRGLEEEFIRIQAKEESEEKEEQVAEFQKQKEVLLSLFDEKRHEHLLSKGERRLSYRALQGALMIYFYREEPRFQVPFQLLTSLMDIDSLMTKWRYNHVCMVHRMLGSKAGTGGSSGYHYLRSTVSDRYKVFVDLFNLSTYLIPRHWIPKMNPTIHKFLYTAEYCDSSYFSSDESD
# indoleamine 2,3-dioxygenase 1, sequence (P14902 whole entry): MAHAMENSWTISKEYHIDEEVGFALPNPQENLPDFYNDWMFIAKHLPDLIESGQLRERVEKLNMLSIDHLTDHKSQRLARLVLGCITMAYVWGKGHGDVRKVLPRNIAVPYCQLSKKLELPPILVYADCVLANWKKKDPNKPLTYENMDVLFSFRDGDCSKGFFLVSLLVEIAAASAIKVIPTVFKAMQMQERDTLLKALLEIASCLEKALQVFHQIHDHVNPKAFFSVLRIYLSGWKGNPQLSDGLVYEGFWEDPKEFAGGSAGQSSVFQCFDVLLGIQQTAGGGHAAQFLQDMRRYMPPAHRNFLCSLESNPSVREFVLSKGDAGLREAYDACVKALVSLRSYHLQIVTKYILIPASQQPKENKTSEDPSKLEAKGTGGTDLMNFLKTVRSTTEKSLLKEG
Molecule,calibration of nanoplatform fluorescence after 60 min. of incubation in HEPES buffer [1],calibration of nanoplatform fluorescence after 60 min. of incubation in HEPES buffer [2],"limit of detection, nanoplatform fluorescence after 60 min. of incubation in HEPES buffer [1]",cyanine 7.0 fluorescence (FRET) of nanoplatform 1 after 1 h of incubation at 37° C. [3],"limit of detection from the calibration curve of FIG. 13 (nanoplatform 2, printed as nanoplatform 1) [3]","limit of detection of nanoplatform 1, quotient of integrated cyanine 5.5 and cyanine 7.0 fluorescence bands [3]","limit of detection of nanoplatform 2, fluorescence increase over the whole range [3]","limit of detection, TCPP fluorescence of the nanoplatform after 60 min. of incubation in HEPES buffer [4]","limit of detection, TCPP fluorescence of the nanoplatform after 60 min. of incubation in PBS [5]"
"tryptophan 2,3-dioxygenase",the concentration of TDO can be determined over the whole range from 10^-7 to 10^-16 M,"TDO does not react with the substrate GNwPwDwGwDwPwNwG (SEQ ID NO:9), because it is specific for L-tryptophan",–,–,–,–,–,–,–
"indoleamine 2,3-dioxygenase 1",–,the concentration of IDO1 can be determined over the range from 10^-7 to 10^-14 M,the LOD for IDO1 is 10^-15 M,–,–,–,–,–,–
"arginase II (enzyme, UniProt P78540 23-354, looked up, species assumed) Arginase-2, mitochondrial: VHSVAVIGAPFSQGQKRKGVEHGPAAIREAGLMKRLSSLGCHLKDFGDLSFTPVPKDDLYNNLIVNPRSVGLANQELAEVVSRAVSDGYSCVTLGGDHSLAIGTISGHARHCPDLCVVWVDAHADINTPLTTSSGNLHGQPVSFLLRELQDKVPQLPGFSWIKPCISSASIVYIGLRDVDPPEHFILKNYDIQYFSMRDIDRLGIQKVMERTFDLLIGKRQRPIHLSFDIDAFDPTLAPATGTPVVGGLTYREGMYIAEEIHNTGLLSALDLVEVNPQLATSEEEAKTTANLAVDVIASSFGQTREGGHIVYDQLPTPSSPDESENQARVRI",–,–,–,"After incubation with arginase II, an increase in cyanine 7.0 fluorescence was observed",the LOD (limit of detection) of nanoplatform 1 is 10^-10 M,the LOD (limit of detection) of nanoplatform 1 is down to the picomolar level,its LOD is only at 10^-7 M of arginase II concentration,The limit of detection is estimated to 2×10^-16M arginase II,The limit of detection is 10^-15 M arginase II
